The subject of data set [1] is CC[C@H](NC(=O)[C@@H](NC(=O)[C@@H](NC(=O)[C@H](CC(=O)O)NC(=O)[C@@H](N)CCC(=O)O)C(C)C)C(C)C)C(=O)N[C@@H](CS)C(=O)N[C@@H](CO)C(=O)N[C@@H](CCSC)C(=O)N[C@@H](CO)C(=O)N[C@@H](Cc1ccc(O)cc1)C(=O)O. Nature of the data set: HCV NS3 protease domain peptide cleavage assay (determination of Km and Vmax). In kind it is biochemical. Conditions: other: enzyme NS3 Protease Domain; peptide substrate varied 3 μM to 200 μM; 25 μM KK4A cofactor; reverse phase HPLC; pH 7.8; 40.0 °C. The method, then:
This assay is a modification of that described by Landro, et al. (Landro J A, Raybuck S A, Luong Y C, O'Malley E T, Harbeson S L, Morgenstern K A, Rao G and Livingston D L. Biochemistry 1997, 36, 9340-9348), and uses a peptide substrate (NS5AB), based on the NS5A/NS5B cleavage site for genotype 1a HCV. The substrate stock solution (25 mM) was prepared in DMSO containing 0.2 M DTT and stored at −20° C. A synthetic peptide cofactor (KK4A) was used as a substitute for the central core region of NS4A. The reaction was performed in a 96-well microtiter plate format using 25 ηM to 50 ηM HCV NS3 protease domain in buffer containing 50 mM HEPES pH 7.8, 100 mM NaCl, 20% glycerol, 5 mM DTT and 25 μM KK4A. The final DMSO concentration was no greater than 2% v/v. […]
The SMSY product was separated from substrate and KK4A using a microbore separation method. […] The SMSY product peak was quantified using the data collected at […].
To determine the kinetic parameters Km and Vmax, the HCV NS3 protease domain or HCV NS3•4A was reacted with peptide substrate under the assay conditions described above. […] The ratio of the product peak area (as determined by reverse phase HPLC) to the reaction time yielded a rate of enzyme catalyzed hydrolysis. […] The value of kcat was determined from Vmax using the nominal protease concentration and a fully cleaved substrate peptide as an instrument calibration standard.

The target of data set [2] is T1, HCV NS3•4A (Hepatitis C virus genotype 1a, UniProt P27958).
T1 construct: hexa-histidine (N); made in house; host or cells: Sf9 insect cells (recombinant baculovirus, pVL1392-His-NS3•4A)
Nature of the data set: HCV NS3 peptide cleavage assay with full-length NS3•4A (determination of Km and Vmax). In kind it is biochemical, HCV sub-type strain 1a. To be noted: enzyme NS3•4A; peptide substrate varied 3 μM to 200 μM; 25 μM NS4A peptide; reverse phase HPLC. The method, then: (§1) This assay follows the cleavage of a peptide substrate by full-length hepatitis C viral protein NS3•4A. One of three peptide substrates based on the NS5A/NS5B cleavage site for genotype 1a HCV, shown in table 3 below, is used to measure enzyme activity. All substrate stock solutions (25 mM) were prepared in DMSO containing 0.2 M DTT and stored at −20° C. A synthetic peptide cofactor (NS4A Peptide) was used to supplement NS4A. The hydrolysis reaction was performed in a 96-well microtiter plate format using 100 ηM to 125 ηM HCV NS3•4A in buffer containing 50 mM HEPES pH 7.8, 100 mM NaCl, 20% glycerol, 5 mM DTT and 25 μM NS4A peptide. The final DMSO concentration was no greater than 2% v/v. Reactions using NS5AB or NS5AB-EDANS as substrate were quenched by the addition of 10% trifluoroacetic acid (TFA) to yield a final TFA concentration of 2.5%. Reactions using FITC-NS5AB-1 as substrate were quenched by the addition of 0.4 M formic acid to yield a final concentration of 0.08 M acid.
(§2) Enzymatic activity was assessed by separation of substrate and products using reverse phase HPLC. The instrument used was an Agilent 1100 with a G1322A degasser, either a G1312A binary pump or a G1311A quaternary pump, a G1313A autosampler, a G1316A column thermostated chamber, a G1321A fluorescence detector and a G1315A diode array detector. The column thermostat was at 40° C. […] The C-terminal product peak (NH2-SMSY-COOH) was quantified using the absorbance data collected at 210 ηm. […] The C-terminal product peak (NH2-SMSYT-Asp(EDANS)-KKK-COOH) was quantified using the fluorescence data collected at 350 ηm excitation/490 ηm emission. […] The N-terminal product peak (FITC-Ahx-EDVV-(alpha)Abu-C-COOH) was quantified using the fluorescence data collected at 440 ηm excitation/520 ηm emission. Alternatively, the ratio of N-terminal product to unreacted FITC-NS5AB-1 substrate was determined using a Caliper LabChip 3000 with detection at 488 ηm excitation/530 ηm emission, using a chip buffer of 100 mM Tris pH 7.0, 10 mM EDTA, 0.01% (v/v) Brij-35, and 0.1% (v/v) CR-3. […]

In data set [3] the test system is CC[C@H](NC(=O)[C@@H](NC(=O)[C@@H](NC(=O)[C@H](CC(=O)O)NC(=O)[C@@H](N)CCC(=O)O)C(C)C)C(C)C)C(=O)N[C@@H](CS)C(=O)N[C@@H](CO)C(=O)N[C@@H](CCSC)C(=O)N[C@@H](CO)C(=O)N[C@@H](Cc1ccc(O)cc1)C(=O)O. Described as above. It is filed as biochemical, HCV sub-type strain 1a. Conditions: other: enzyme NS3•4A; peptide substrate varied 3 μM to 200 μM; 25 μM NS4A peptide; reverse phase HPLC; 40.0 °C. The method, then: as §1, §2

[ ]: non-standard residue; d: D form. The star is where a group is joined. FITC = O=C1OC2(c3ccc(O)cc3Oc3cc(O)ccc32)c2ccc(NC(=S)*)cc21; Abu = CC[C@H](N)C(=O)O; Ahx = NCCCCCC(=O)O

On to “HCV NS3 protease domain (Hepatitis C virus (isolate Con1))”, for which, in data set [1], the Km was 25 µM and the kcat/Km is 30000 M⁻¹ s⁻¹.

As to “FITC-Ahx-EDVV-(alpha)Abu-CSMSYTKK-NH2 ({FITC}-[Ahx]EDVV[Abu]CSMSYTKK-NH2) [FITC-NS5AB-1, FITC-labelled peptide substrate based on the NS5A/NS5B cleavage site for genotype 1a HCV]”, the Km in data set [2] worked out at 15 µM.

As for “HCV NS3•4A (Hepatitis C virus (isolate H77))”, in data set [3], the Km was 30 µM and the kcat/Km is 7900 M⁻¹ s⁻¹.

A word on the Km: it is the concentration of substrate that gives half-maximal velocity. The term kcat/Km denotes the second-order rate constant that governs catalysis at low substrate concentration.

For the origin of these results see US8501426B2, “Method for identifying protease inhibitors” (priority 2006, dated 2013).
